Data: paper PMC7826282 (Nucleic Acids Research, 2020)

T1: 3xFLAG-FL-NOPCHAP1 (human, UniProt Q8N5I9 1-185)
T1 sequence (looked up): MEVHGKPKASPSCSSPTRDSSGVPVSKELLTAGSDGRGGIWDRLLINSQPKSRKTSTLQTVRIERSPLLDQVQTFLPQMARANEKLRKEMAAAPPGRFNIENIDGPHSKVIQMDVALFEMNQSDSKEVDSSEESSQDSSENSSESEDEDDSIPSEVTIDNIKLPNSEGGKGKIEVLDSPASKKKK


Tests used:
[1] = biological target: RUVBL1/2 WT complex ( (human or mouse cDNA cloned), UniProt Q9Y265 1-456; Q9Y230 1-463); experiment: SPR
[2] = biological target: T1, 3xFLAG-FL-NOPCHAP1; experiment: co-IP
[3] = biological target: 3xFLAG-FL-RUVBL1 (WT) (mouse, UniProt P60122 1-456); experiment: co-IP
3xFLAG-FL-RUVBL1 (WT), sequence (P60122 whole entry): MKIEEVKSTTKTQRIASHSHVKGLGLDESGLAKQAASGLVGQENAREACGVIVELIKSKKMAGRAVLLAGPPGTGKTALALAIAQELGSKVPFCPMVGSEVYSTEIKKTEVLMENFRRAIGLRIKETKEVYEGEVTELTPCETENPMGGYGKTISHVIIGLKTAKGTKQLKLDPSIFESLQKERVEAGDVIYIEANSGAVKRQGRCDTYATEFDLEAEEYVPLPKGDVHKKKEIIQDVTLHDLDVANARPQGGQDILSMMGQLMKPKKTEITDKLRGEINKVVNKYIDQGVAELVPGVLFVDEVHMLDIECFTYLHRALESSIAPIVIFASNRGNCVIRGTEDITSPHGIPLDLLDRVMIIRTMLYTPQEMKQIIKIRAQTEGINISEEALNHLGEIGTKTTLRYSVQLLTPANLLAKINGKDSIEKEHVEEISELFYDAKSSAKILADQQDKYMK

[4] = biological target: 3xFLAG-FL-RUVBL2 (WT) (mouse, UniProt Q9WTM5 1-463); experiment: co-IP

RUVBL1/2 WT complex, sequence (Q9Y265 whole entry, one chain of several): as the sequence (P60122 whole entry) above, with V291I counted along it

Row | Binder | Kd [1] [nM] | co-IP efficiency [2] [%] | fold over the control IP without antibody [2] [fold] | co-IP efficiency [3] [%] | co-IP efficiency [4] [%]
1 | Avi-NOPCHAP1-6xHis, biotinylated (natural protein, human, UniProt Q8N5I9 1-185, looked up, biotin (cellular biotinylation by BirA)) MEVHGKPKASPSCSSPTRDSSGVPVSKELLTAGSDGRGGIWDRLLINSQPKSRKTSTLQTVRIERSPLLDQVQTFLPQMARANEKLRKEMAAAPPGRFNIENIDGPHSKVIQMDVALFEMNQSDSKEVDSSEESSQDSSENSSESEDEDDSIPSEVTIDNIKLPNSEGGKGKIEVLDSPASKKKK | 1.98 | – | – | – | –
2 | RL-NOP58 (natural protein, human, UniProt Q9Y2X3 1-529, looked up) MLVLFETSVGYAIFKVLNEKKLQEVDSLWKEFETPEKANKIVKLKHFEKFQDTAEALAAFTALMEGKINKQLKKVLKKIVKEAHEPLAVADAKLGGVIKEKLNLSCIHSPVVNELMRGIRSQMDGLIPGVEPREMAAMCLGLAHSLSRYRLKFSADKVDTMIVQAISLLDDLDKELNNYIMRCREWYGWHFPELGKIISDNLTYCKCLQKVGDRKNYASAKLSELLPEEVEAEVKAAAEISMGTEVSEEDICNILHLCTQVIEISEYRTQLYEYLQNRMMAIAPNVTVMVGELVGARLIAHAGSLLNLAKHAASTVQILGAEKALFRALKSRRDTPKYGLIYHASLVGQTSPKHKGKISRMLAAKTVLAIRYDAFGEDSSSAMGVENRAKLEARLRTLEDRGIRKISGTGKALAKTEKYEHKSEVKTYDPSGDSTLPTCSKKRKIEQVDKEDEITEKKAKKAKIKVKVEEEEEEKVAEEEETSVKKKKKRGKKKHIKEEPLSEEEPCTSTAIASPEKKKKKKKKRENED | – | 0.18 | 64 | < 0.1 | < 0.1
3 | RL-RUVBL2-E300Q (natural protein, mouse, UniProt Q9WTM5 1-463, looked up) MATVAATTKVPEIRDVTRIERIGAHSHIRGLGLDDALEPRQASQGMVGQLAARRAAGVVLEMIREGKIAGRAVLIAGQPGTGKTAIAMGMAQALGPDTPFTAIAGSEIFSLEMSKTEALTQAFRRSIGVRIKEETEIIEGEVVEIQIDRPATGTGSKVGKLTLKTTEMETIYDLGTKMIESLTKDKVQAGDVITIDKATGKISKLGRSFTRARDYDAMGSQTKFVQCPDGELQKRKEVVHTVSLHEIDVINSRTQGFLALFSGDTGEIKSEVREQINAKVAEWREEGKAEIIPGVLFIDQVHMLDIESFSFLNRALESDMAPVLIMATNRGITRIRGTSYQSPHGIPIDLLDRLLIVSTSPYSEKDTKQILRIRCEEEDVEMSEDAYTVLTRIGLETSLRYAIQLITAASLVCRKRKGTEVQVDDIKRVYSLFLDESRSTQYMKEYQDAFLFNELKGETMDTS | – | 0.35 | – | – | –
4 | RL-RUVBL2-K83M (natural protein, mouse, UniProt Q9WTM5 1-463, looked up) MATVAATTKVPEIRDVTRIERIGAHSHIRGLGLDDALEPRQASQGMVGQLAARRAAGVVLEMIREGKIAGRAVLIAGQPGTGMTAIAMGMAQALGPDTPFTAIAGSEIFSLEMSKTEALTQAFRRSIGVRIKEETEIIEGEVVEIQIDRPATGTGSKVGKLTLKTTEMETIYDLGTKMIESLTKDKVQAGDVITIDKATGKISKLGRSFTRARDYDAMGSQTKFVQCPDGELQKRKEVVHTVSLHEIDVINSRTQGFLALFSGDTGEIKSEVREQINAKVAEWREEGKAEIIPGVLFIDEVHMLDIESFSFLNRALESDMAPVLIMATNRGITRIRGTSYQSPHGIPIDLLDRLLIVSTSPYSEKDTKQILRIRCEEEDVEMSEDAYTVLTRIGLETSLRYAIQLITAASLVCRKRKGTEVQVDDIKRVYSLFLDESRSTQYMKEYQDAFLFNELKGETMDTS | – | 7.5 | – | – | –
